Reference: PMC3699631, “Posttranslational Modifications of the Histone 3 Tail and Their Impact on the Activity of Histone Lysine Demethylases In Vitro” (PLoS ONE, 2013)

Assays:
cc-KDM4C = test: MALDI-TOF-MS demethylation, truncated KDM4C; assay type: biochemical, human
Description: (§1) The enzyme kinetics were measured using a Formaldehyde DeHydrogenase Assay (FDH-Assay) and the demethylation of substrates was confirmed when possible by MALDI-TOF-MS, see File S1 for details. The test solution contained 50 mM HEPES (pH 7.5), 50 mM NaCl, 50 µM FeSO4, 500 µM α-KG, 500 µM ascorbate, 2 mM NAD, approximately 0.05 unit of FDH and e.g. 4.88 µM KDM4C (enzyme concentration varied between batches). The reference solution was comprised of the same except substrate. The assay was initiated by adding various concentrations of H3 peptide substrates e.g. H3(1–24)K9me3 (10–1000 µM) and the increase in NADH fluorescence was measured over 15–30 minutes in 30 second intervals. Data analysis and kinetic values were obtained using programs Excel and GraphPad Prism® 5.0. For details, see File S1.
(§2) The reaction mixture was diluted 1: 9 with a saturated solution of α-cyano-4-hydroxycinnamic acid (Aldrich) in a mixture of 65 % acetonitrile and 35 % MilliQ water containing 0.1 % TFA. 1 µl of the sample was spotted onto the target and air dried. The MALDI-TOF MS was carried out on an Ultraflex TOF/TOF (Bruker) operated in positive ion mode with an Ion source voltage of 25 kV, a lens voltage of 7.5 kV and a reflector voltage of 26.3 kV. The system was run in deflection mode with a mass suppression of 500 Da. […]

cc-KDM4A = test: MALDI-TOF-MS demethylation, truncated KDM4A; assay type: biochemical, human
Description: as §1, §2

human cc-KDM4A = target: T1, human cc-KDM4A (Homo sapiens, UniProt O75164); test: competition experiment H3(1–24)K9me3-T11(ph) with H3(1–24)K9me3, truncated KDM4A; assay type: biochemical
T1 construct: Truncated constructs of KDM4A and KDM4C containing only the catalytic cores (cc-KDM4A/cc-KDM4C); made in house
T1 sequence (O75164 1-350 limits assumed): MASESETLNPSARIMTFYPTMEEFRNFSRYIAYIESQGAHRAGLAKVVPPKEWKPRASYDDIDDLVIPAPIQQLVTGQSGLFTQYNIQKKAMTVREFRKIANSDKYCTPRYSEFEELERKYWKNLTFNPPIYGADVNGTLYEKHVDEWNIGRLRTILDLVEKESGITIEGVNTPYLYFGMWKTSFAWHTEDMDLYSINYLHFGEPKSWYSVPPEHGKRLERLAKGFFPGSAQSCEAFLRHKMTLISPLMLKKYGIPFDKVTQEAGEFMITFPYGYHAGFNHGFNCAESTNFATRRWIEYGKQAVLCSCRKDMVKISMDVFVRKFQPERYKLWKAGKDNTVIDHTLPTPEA
Description: (§3) To investigate if H3(1–24)K9me3-T11(ph) could bind to the enzyme and act as an inhibitor, a competition experiment with H3(1–24)K9me3 was carried out.
as §1

human cc-KDM4C = target: T2, human cc-KDM4C (Homo sapiens, UniProt Q9H3R0); test: competition experiment H3(1–24)K9me3-T11(ph) with H3(1–24)K9me3, truncated KDM4C; assay type: biochemical
T2 construct: Truncated constructs of KDM4A and KDM4C containing only the catalytic cores (cc-KDM4A/cc-KDM4C); made in house
T2 sequence (Q9H3R0 1-349 limits assumed): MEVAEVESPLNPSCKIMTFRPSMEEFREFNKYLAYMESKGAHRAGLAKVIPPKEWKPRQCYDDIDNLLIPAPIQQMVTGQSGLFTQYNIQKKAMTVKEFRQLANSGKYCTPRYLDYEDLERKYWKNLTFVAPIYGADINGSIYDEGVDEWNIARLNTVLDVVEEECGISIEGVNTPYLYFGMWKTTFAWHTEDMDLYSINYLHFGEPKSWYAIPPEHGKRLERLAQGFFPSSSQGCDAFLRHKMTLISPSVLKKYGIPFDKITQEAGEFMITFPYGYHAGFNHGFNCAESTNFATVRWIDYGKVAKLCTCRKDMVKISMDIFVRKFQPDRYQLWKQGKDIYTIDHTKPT
Description: as §3, §1

[1] = cc-KDM4A, H3(1–24)K9me3T11(ph) then H3(1–24)K9me3*
[2] = cc-KDM4C, H3(1–24)K9me3T11(ph) then H3(1–24)K9me3*

Substance | demethylation by MALDI-TOF-MS (in words) (cc-KDM4C) | demethylation by MALDI-TOF-MS (in words) (cc-KDM4A) | K m (human cc-KDM4A; [1]) | k cat (human cc-KDM4A; [1]) | k cat /K m (human cc-KDM4A; cc-KDM4A, H3(1–24)K9me3T11(ph) then H3(1–24)K9me3*, unit: (min^−1 * µM^−1) * 10^3) | K m (human cc-KDM4C; [2]) | k cat (human cc-KDM4C; [2]) | competition / inhibition (in words) (human cc-KDM4A; competition with H3(1–24)K9me3, results not shown, enzyme not named, cc-KDM4A in Table 1) | competition / inhibition (in words) (human cc-KDM4C; competition with H3(1–24)K9me3, results not shown, enzyme not named, cc-KDM4C in Table 1)
H3(1–24)K4me3K9me3: bis-tri-methylated substrate, trimethylated K4 in combination with H3K9me3 | PTM product between mark K4me3 and mark K9me3 | PTM product between mark K4me3 and mark K9me3 |  |  |  |  |  |  | 
H3(1–24)K9me3: truncated histone tail, 24 first amino acids from the N-terminus of H3, trimethylated lysine 9; control peptide |  |  | 132±23 | 1.4±0.08 | 10.6±1.9 | 43±22 | 0.3±0.05 |  | 
H3(1–24)K9me3T11(ph): H3(1–24)K9me3 with phosphorylation of threonine 11 | no detectable turnover | no detectable turnover |  |  |  |  |  | does not act as an inhibitor | does not act as an inhibitor
